The results in this text go back to patent US20150368301.

The test system of this data set is Unphosphorylated Nox1 peptide (KLKTQKIYF, "LocKiT").

For PKC-βI (protein kinase C-βI), the “in vitro kinase assay, heat of phosphorylation measured by ITC; dot blot with p-STY antibody” value is recorded as “The slope of the reaction following the heat of dilution confirms that the Nox1 peptide is a substrate for PKC-βI”.
